Experimental data from publication PMC6529630 (mBio, 2019).

Key:
[1] = molecular target: T1, GlnA4 (gamma-glutamylethanolamide synthetase) (Streptomyces coelicolor, UniProt O88070); experiment: HPLC/ESI-MS detection of reaction product of purified His-GlnA4; format: biochemical
T1 construct: His-GlnA4
T1 sequence (O88070 1-462): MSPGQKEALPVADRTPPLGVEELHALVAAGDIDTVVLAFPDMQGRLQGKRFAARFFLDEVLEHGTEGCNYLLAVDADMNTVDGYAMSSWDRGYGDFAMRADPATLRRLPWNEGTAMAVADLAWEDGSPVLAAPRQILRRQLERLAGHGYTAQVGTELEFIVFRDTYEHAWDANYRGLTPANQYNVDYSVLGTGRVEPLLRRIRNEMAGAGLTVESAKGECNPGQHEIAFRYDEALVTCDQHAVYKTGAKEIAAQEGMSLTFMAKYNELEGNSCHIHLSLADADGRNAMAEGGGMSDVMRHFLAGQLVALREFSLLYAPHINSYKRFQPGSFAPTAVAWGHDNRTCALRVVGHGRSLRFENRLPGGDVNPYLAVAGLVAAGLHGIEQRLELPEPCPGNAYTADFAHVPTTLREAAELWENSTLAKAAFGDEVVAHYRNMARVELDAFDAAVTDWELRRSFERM

[2] = molecular target: T1, GlnA4 (gamma-glutamylethanolamide synthetase); experiment: Pi-release inhibition assay with purified His-GlnA4, Ki from IC50 (Cheng-Prusoff); weak; format: biochemical
[3] = substrate: Nc1ncnc2c1ncn2[C@@H]1O[C@H](COP(=O)(O)OP(=O)(O)OP(=O)(O)O)[C@@H](O)[C@H]1O; experiment: Pi-release enzyme kinetics with purified His-GlnA4; format: biochemical, Streptomyces coelicolor; conditions: Mg2+ (MgCl2)
purified protein [4] = substrate: N[C@@H](CCC(=O)O)C(=O)O; experiment: purified protein; conditions: ATP, Mg2+ (MgCl2)
purified protein [5] = substrate: NCCO; experiment: purified protein; conditions: ATP, Mg2+ (MgCl2)

N[C@@H](CCC(=O)NCCO)C(=O)O [gamma-glutamylethanolamide]
HPLC/ESI-MS detection of reaction product of purified His-GlnA4 [1]: GlnA4 is a functional gamma-glutamylethanolamide synthetase that uses glutamate and ethanolamine as substrates to generate gamma-glutamylethanolamide

CS(=N)(=O)CC[C@H](N)C(=O)O (some centres unmarked) [methionine sulfoximine]
Ki [2]: ~11 mM

B1: GlnA4 (gamma-glutamylethanolamide synthetase) (Streptomyces coelicolor A3(2)) (protein)
chain: T1 sequence (O88070 1-462)
notes: His-GlnA4
Km [3]: 2.5 mM
Km (purified protein [4]): 85.41 mM
Km (purified protein [5]): 0.47 mM
